Values of other authors, collected in US20230365625A1, “METHODS FOR TREATING AND/OR PREVENTING UNDESIRABLE SEQULAE OF NASAL TURBINOPLASTY OR FUNCTIONAL ENDOSCOPIC SINUS SURGERY” (3-D Matrix, Ltd., priority 2022, published 2023).
Entries after “also recorded” stand apart in the source; their conditions may differ. Read-outs that look alike come from different tables or passages of the source.

Tests used:
[1] = cited from earlier work
[2] = 1% in water; cited from earlier work
[3] = cited from earlier work; remark: listed apart in the source
[4] = tested on: punch hole injuries to the liver; settings: pig, in vivo; cited from earlier work
[5] = RADA16 2.5%, IEIK13 1.3%, QLEL12 0.15% in water; result in words; cited from earlier work
[6] = in solution before DMEM, RADA16 assumed 2.5% wt/vol, IEIK13 concentration unknown

| Substance | Storage modulus G′ ([1]; 1% in water) | Increase in storage modulus G′ after DMEM treatment relative to before [2] | Storage modulus after DMEM treatment [2] | Gel stiffness compared to RADA16 ([3]; exposed to physiological conditions, result in words) | Median loss modulus G″ [3, 6] | Median storage modulus G′ [3, 6] | Inflammatory cell infiltration due to the gel in the wound [4] | Effect of gamma-irradiation sterilization [5] | Storage modulus G′ ([1]; 1.5% in water) | Storage modulus G′ ([1]; 2.5% in water) |
| --- | --- | --- | --- | --- | --- | --- | --- | --- | --- | --- |
| Ac-IEIKIEIKIEIKI-NH2 [IEIK13] | ~700 Pa | 7.4 fold | 5314 Pa | forms a stiffer gel; also recorded: form a stiffer hydrogel matrix | 116 Pa | 1145 Pa | absence if inflammatory cell infiltration | enhanced the rheological properties |  |  |
| Ac-QLELQLELQLEL-NH2 [QLEL12, self-assembling peptide] |  |  |  |  |  |  |  | significant degradation and viscosity drop |  |  |
| KLDKLDKLDKLD [KLD12] |  | 23.9 fold |  |  |  |  |  |  | about 350 Pa | ~700 Pa |
